This test has as its target endogenous TCRs of un-transduced activated human T cells (Untd). Briefly: flow cytometry, FITC-anti-human TCR Vβ13.1 staining of un-transduced activated human T cells. Background: In flow cytometry, cells or beads pass a laser one at a time.

For “FITC anti-human TCR Vβ13.1 Antibody (EBIOSCIENCE, …X, THERMO FISHER …)”, the % of cells positive for staining is 3.9%.

The values above are taken from patent US20260116949A1.
